According to patent US20150191542A1:
Where a chain is given by its changes, count along the chain named.

B1: CHG1-M-MIA-6E4 (antibody, from a related filing, V domains shown)
VH: EVQLVESGGALVKPGGSLKLSCAASGFTFSYYAMSWVRQTPEKRLEWVATISRGGNYIYYTDSVKGRFTISRDNAKNTLYLQMTSLRSEDTAMFYCASISDYDGAWLAYWGQGTTLTVSS
VL: DVLMTQTPLSLPVSLGDQASISCRSSQSIIHTNGNTYLEWYLQKPGQSPKLLIYKISNRFSGVPDRFSGSGSGTDFTLKISRVEAEDLGVYYCFQGSHVPWTFGGGTKLEIKR
B2: CHG1-M-MIA-19E9 (antibody, V domains shown)
VH: DVQLQESGPGLVKPSQSLSLTCTVTGYSITSDYAWNWIRQFPGNKLEWMGFVSYSGTTKYNPSLKSRISITRDTSENQFFLQLNSVTSEDTATYYCARGYGFDYWGQGTTLTVSS
VL: EIVLTQSPTTMAASPGEKITITCSATSSISSIYFHWYQQRPGFSPKLLIYRTSNLASGVPARFSGSGSGTSYSLTIGTMEAEDVATYYCQQGTTIPFTFGSGTKLEIK
B3: CHG1-M-MIA-10F3 (antibody, from a related filing, V domains shown)
VH: QVQLQQSAAELARPGASVKMSCKASGYTFTSYTMHWVKQRPGQGLEWIGYINPSSGYTEYNQKFKDKTTLTVDKSSTTSYMQLSSLTSDNSAVYYCARGGDWDVDWFVYWGQGTLVTVSA
VL: QIVLTQSPAIMSASPGEKVTITCSASSSISYMHWFQQKPGTSPKLWIYSTSKLASGVPARFSGSGSGTSHSLTISRMEAEDAATYYCQHRSTYPFTFGSGTKLEIK
B4: CHG1-M-MIA-12A10 (antibody, from a related filing, V domains shown)
VH: QVQLQQSGADLVRPGASVRLSCRASGYSFTNYWMNWVKQRPGQGLEWIGMIHPSDSETRLNQKFKDKATLTVDKSSNTAYMQLSSPTSEDSAIYYCARDDFFTMDYWGQGTSVTVSS
VL: DILLTQSPAILSVSPGERVSFSCRASQNIVTSIHWYQQSTNGSPRLLIKYASESISGIPSRFSGSGSGTDFTLTINSVESEDVADYYCQQSNIWPLTFGAGTKLELK
B5: CHG1-M-MIA-14B4 (antibody, from a related filing, V domains shown)
VH: QVQLQQPGAELVRPGASVKLSCKASGYSFTSYWMNWMKQRPGQGLEWIGMIHPSDSETRLNQKFKDKATLTVDKSSSTAYMQLNSPTSEDSAVYYCAREMGPYTLDYWGQGTSVTVSS
VL: B4 VL with E17A, V30D, S39R, T74S, V83I, I93Y
B6: CHG1-M-MIA-18E8 (antibody, from a related filing, V domains shown)
VH: DVQLQESGPDLVNPSQSLSLICTVTGYSITSDYSWHWIRQFPGNKLEWMGNIHYSGRINYNPSLRSRISITRDTSKNQFFLQLISVTTEDTATYYCATRRTFGNFEDYWGQGTTLTVSS
VL: QIVLSQSPATLSVSPGEKVTMTCRSSSSVNYMHWYQQKPGSSPKPWIYATSTLASGVPARFSGSGSGTSYSLTISRVEAEDAATYYCQQWSSNPLTFGAGTKLELK

target: T1, MICA*001 expressed on transfected cells (human); experiment: flow cytometry, MFI against antibody concentration on C1R-MICA*01 cells
T1 sequence: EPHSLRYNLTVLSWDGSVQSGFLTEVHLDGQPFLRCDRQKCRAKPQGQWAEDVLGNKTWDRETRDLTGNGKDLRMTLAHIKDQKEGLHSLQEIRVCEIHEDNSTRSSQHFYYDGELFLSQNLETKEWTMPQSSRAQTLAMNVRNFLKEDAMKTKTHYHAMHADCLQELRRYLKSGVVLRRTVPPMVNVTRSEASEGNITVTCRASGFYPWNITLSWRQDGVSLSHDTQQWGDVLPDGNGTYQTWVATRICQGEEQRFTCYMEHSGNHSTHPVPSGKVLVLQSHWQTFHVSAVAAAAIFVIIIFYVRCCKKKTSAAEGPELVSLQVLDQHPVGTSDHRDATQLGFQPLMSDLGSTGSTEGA

Binder	EC50 (read off the curve) [µg/mL]
B1	0.6
B2	1

target: MICA*004 expressed on C1R transfectant cells (human) (UniProt Q29983); experiment: flow cytometry, MFI against antibody concentration on C1R-MICA*04 cells
Sequence (Q29983 other isoform, or with tags, fused parts or gaps limits assumed): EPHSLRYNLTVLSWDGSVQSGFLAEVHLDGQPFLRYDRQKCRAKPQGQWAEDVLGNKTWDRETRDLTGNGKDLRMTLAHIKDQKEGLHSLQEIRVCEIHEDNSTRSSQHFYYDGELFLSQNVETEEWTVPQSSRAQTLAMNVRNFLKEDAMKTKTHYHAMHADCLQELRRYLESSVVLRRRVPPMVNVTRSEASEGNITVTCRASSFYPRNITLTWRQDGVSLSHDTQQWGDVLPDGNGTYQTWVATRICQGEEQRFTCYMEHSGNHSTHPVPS

Binder	EC50 (read off the curve) [µg/mL]
B3	0.2
B4	0.3
B5	0.2
B6	0.2

target: MICA*007 expressed on C1R transfectant cells (human) (UniProt Q29983); experiment: flow cytometry, MFI against antibody concentration on C1R-MICA*07 cells

Binder	EC50 (read off the curve) [µg/mL]
B1	1
B4	1
B6	0.3

target: MICA*008 expressed on C1R transfectant cells (human) (UniProt Q29983); experiment: flow cytometry, MFI against antibody concentration on C1R-MICA*08 cells

Binder	EC50 (read off the curve) [µg/mL]
B3	0.3
B4	0.3
B5	0.3
B6	0.3
